B1: TPR 5TU (parent)
chain: GGAUCUUCUCGAUCUAACAAAAAAGACAAAUCUGCCACAAAGCUUGAGAGCAUCUUCGGAUGCAGAGGCGGCAGCCUUCGGUGGCGCGAUAGCGCCAACGUUCUCAACUAUGACACGCAAAACGCGUGCUCCGUUGAAUGGAGUUUAUCAUG

Fewer inactive variants are shown than the library holds.

The variants in this series derive from B1. Nature of the series: polymerase ribozyme fitness, log enrichment relative to wild type (log ratio); higher = more active; in vitro selection for triplet polymerase activity. The gist of the method:
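Streptavidin-bead capture of gel-excised extended constructs, followed by RT-PCR, closed a single triplicate in vitro selection round. That round began by annealing PCR-built, transcribed mutant libraries of each subunit of a heterodimeric triplet polymerase ribozyme with a biotinylated primer, the partner subunit and triplets, then incubating them frozen at −7 °C. After Illumina sequencing of inputs and outputs, genotypes needed ≥10 input reads and ≥1 read per output. Fitness is the base-2 logarithm of genotype enrichment over wild-type enrichment, using inverse-variance-weighted replicate averages.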
As for GGAUCUUCUCGAUCUAACUAAAAAGUCAAAUCUGCCACAAAGCUUGAGAGCAUCUUCGGAUGCAGAGGCGGCAGCCUUCGGUGGCGCGAUAGCGCCAACGUUCUCAACUAUGACACGCAAAACGCGUGCUCCGUUGAAUGGAGUUUAUCAUG, the “polymerase ribozyme fitness (log ratio)” value was -2.56.

Consider GGAUCUUCUCGAUCUAACUAAAGAGACAAAUCUGCCACAAAGCUUGAGAGCAUCUUCGGAUGCAGAGGCGGCAGCCUUCGGUGGCGCGAUAGCGCCAACGUUCUCAACUAUGACACGCAAAACGCGUGCUCCGUUGAAUGGAGUUUAUCAUG, for which the “polymerase ribozyme fitness (log ratio)” value is -3.44.

Take GGAUCUUCUCGAUCUAACUAAAAAGACAAUUCUGCCACAAAGCUUGAGAGCAUCUUCGGAUGCAGAGGCGGCAGCCUUCGGUGGCGCGAGCGCGCCAACGUUCUCAACUAUGACACGGAAAACGCGUGCUCCGUUGAAUGGAGUUUAUCAUG: the “polymerase ribozyme fitness (log ratio)” value is at most -4.2.

As to GGAUCUUCUCGAUCUAACUAAAAAGCCAAAUCUGCCACAUAGCUUGAGAGCAUCUUCGGAUGCAGAGGCGGCAGCCUUCGGUGGCGCGAUAGCGCAAACGUUCUCAACUAUGACACGCAACACGCGUGCUCCGUUGAAUGGAGUUUAUCAUG, the “polymerase ribozyme fitness (log ratio)” value was -2.54.

Consider GGAUCUUCUCGAUCUAACUAAAAAGACAAAUCUGCCACAAAGCUUGAGAGCAUCUUCGGAUGCAGAGGCGGCAGCCUUCGGUGGCGCGAUAGCGCCAACGUUCUCAACUAUGACACGCAAAACGCGUGCUCCGUUGAAUGGAGUUUAUCAUG, for which the “polymerase ribozyme fitness (log ratio)” value is -0.43.

For GGAUCUUCUCGAUCUAACUAAAAAGACAAAUCUGCCUCAAAGCUUGAGAGCAUCUUCGGAUGCAGACGCGGCAGCCUUCGGUGGAGCGAUAGCGCCAACGUUCUCAACGAUGACACGCAAAACGCGUGCUCCGUUGAAUGGAGUUUACCAUG, the “polymerase ribozyme fitness (log ratio)” value was at most -4.2.

Take GGAUCUUCUCGAUCUAACUAAGAAGACAAAUCUGCCACAAAGCUUGAGAGCAUCUUCGGAUGCAGAUGCGGCAGCCUUCGGUGGCGCGAUAGAGCCAACGUUCUCAACUAUGACACGCAAAACGCAUGCUACGUUGAAUGGAGUUUAUCAUG: the “polymerase ribozyme fitness (log ratio)” value was at most -4.2.

For the variant GGAUCUUCUCGAUCUAACUAAAAAGACAAAUCUGCCACAGAGCUUGAGAGCAUCUUCGGAUGCAGAGGCGGCAGCCUUCGGUGGCGCGAUAGCGCCAACGUUCUCAACUCUGACACGCAAAACGCGUGCUCCGUUGAAUGGAGUUUAUCAUG, the “polymerase ribozyme fitness (log ratio)” value was at most -4.2.

As for GGAUCUUCUCGAUCUAACUUAAAGGACAAAUCUGCCACAAACCUUGAGAGCAUCAUAGGAUGCAGAGGCGGCAGCCUCCGGUGGCUCGAUAGCGCCAACGUUCUCAACUAUGACACGCUAAACGCGUGCUCCGUUGAAUGGAGUUUAUCAUG, the “polymerase ribozyme fitness (log ratio)” value is at most -4.2.

For the variant GGAUCUUCUCGAUCUAACUAAAUAGACAAAUCUGCCACAAAGCUUGAGAGCAUCUUCGGAAGCAGAGGCGGCAGCCUUCGGUGGCGCGAUAGCGCCAAAGGUCUCAACUAUGACACGCAAAACGCGUGCUCCGUUCCAUGGAGUAUAUCAUG, the “polymerase ribozyme fitness (log ratio)” value was at most -4.2.

For the variant GGAUCUUCUCGAUCUAACUAAAACGACAAAUCUGCCACAAAGCUUGAGAGCAUCUUCGGAUGCAGAGGCGGCAGCCUUCGGUGGCACGAUAGCGCCAACGUUCUCAACUAUGACACGCAAAACGCGUGCUCCGUUGAAUUGAGUUUAUCAUG, the “polymerase ribozyme fitness (log ratio)” value is at most -4.2.

Regarding GGAUCUUCUCGAUCUAACGAAAAAGACAAAUCUGCCACAAAGCUUGAGAGCAUCUUCGGAUGCAGAGGCGGCAGCCUUCGGCGGCGCGAUAGCGCCAACGUUCUCAACUAUGACAUGCAAAACGAGUGCUCCGUUGAAUGUAGUUUAUCAUG, the “polymerase ribozyme fitness (log ratio)” value is at most -4.2.

Regarding GGAUCUUCUCGAUCUAACUAAGAAGACAAAUCUGCCACAAAGCUUGAGAGCCUCUUCGGAUGCAGAGGCGGCAGCCUUCGGUGGCGCGAUAGCGCCAACGUUCUCAACUAUGAAACGCAAAACGCGUGCUCCGUUGAAUGGGGUUUAUCAUG, the “polymerase ribozyme fitness (log ratio)” value was at most -4.2.

Consider GGAUCUUCUCGAUCUAACUAAAAAGACAAAUCUGCCCCAAAGCUUGAGAGCAUCUUCGGAUGCAGAGGCGGCAGCCUUCGGGGGCGCGUUAGCGGCCACGUUCUCAUCUAUGACACGCAAAACGCGAGCUCCGUUGAAUGGAGUUUAUCAUG, for which the “polymerase ribozyme fitness (log ratio)” value is at most -4.2.

On to GGAUCUUCUCGAUCUAACUAUAAAGACAAUUCUGCCACACAGCUUGAGAGCAUCAUCGGAUGCAGAGGCGGCAGCCUUCGGUGGCGCGAUAGCGCUAACGUUCUCAACUAUGACACGCAAAACGCAUGCUCUGUUGAAUGGAUUUUAUCAUG, for which the “polymerase ribozyme fitness (log ratio)” value was at most -4.2.

Turning to GGAUCUUCUCGAUCUAACUAAGAAGAGAAUUCUGCCACAAAGCUUGAGAGCAUCUUCGGAUGCAGAGGCGGCAGCCUUCGGUGGCGCCAUAGCGUCAACGUUCUCAACUAUGACACGCAAAACGCGUGCUCCGUUGAAUGGAGUUUAUCAUG, the “polymerase ribozyme fitness (log ratio)” value is at most -4.2.

Turning to GGAUCUUCUCGAUCUAACGAAAAAGACAAAUCUGCCACAAAGCUUGAGAGCAUCGUGGGAUGCAGAGGCGGCAGCCUUCGGUGGCGCGAUAGCGCCGACGUUCUCCACUAUGACACGCAAAACGCGUGCUCCGUUGAAUGGAGUUUAUCAUG, the “polymerase ribozyme fitness (log ratio)” value was -2.96.

In the case of GGAUCUUCUCGAUCUAACUAUAAAGACAAAUCUGCCACGAAGAUAGAGAGCAUCUUCGGAUGCAGAGGCGGCAGCCUUCGGUGGCGCGAUGGCGCCAACGUUCUCAACUAUGACACGCAAAACGCGUGCUCCGUUGAAUGGAGUUUAUCAUG, the “polymerase ribozyme fitness (log ratio)” value is at most -4.2.

In the case of GGAUCUUCUCGAUCUAACUAAAAAGACAAUUCUGCCACAAAGCUUGAGAGCAUCUUCGGAUGCAGAGGCGGGAGCCUUCGGUGGCGCGAUAGCGCUAACGUUCUCGACUAUGACACGCAAACCGCGUGCUCCGUUGAAUUGAGUUUAUCAUG, the “polymerase ribozyme fitness (log ratio)” value is at most -4.2.

Source of the values: the RNAGym collection of RNA variant scans (doi:10.1073/pnas.2313332121).
